From publication PMC5360572 (EBioMedicine, 2017)

Legend:
Test in all cases: SPR; BIAcore 3000, 25 °C; PD-L1-Ig or PD-L2-Ig immobilized on CM5 chip by amine coupling; soluble monomeric PD-1 or mutants (0.01–100 μM) injected at 20 μl/min; equilibrium Kd, 1:1 Langmuir model
Settings in all cases: both partners purified
[1] = target: T1, mouse PD-L1 Ig fusion protein (mouse, UniProt Q9EP73 19-239)
T1 construct: mouse PD-L1 part of a bought Ig fusion protein; also called mPD-L1; murine PD-L1-Ig; source: bought: R&D Systems

[2] = target: T2, human PD-L2 Ig fusion protein (human, UniProt Q9BQ51 20-220)
T2 construct: characterized by SEC prior to use; also called huPD-L2; B7-DC; source: bought: R&D Systems
T2 sequence (looked up): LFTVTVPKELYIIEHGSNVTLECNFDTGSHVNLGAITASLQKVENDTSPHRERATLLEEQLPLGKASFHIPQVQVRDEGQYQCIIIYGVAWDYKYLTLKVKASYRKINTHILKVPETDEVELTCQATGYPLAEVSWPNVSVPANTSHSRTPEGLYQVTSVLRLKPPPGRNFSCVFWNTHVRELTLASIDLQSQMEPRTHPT

[3] = target: T3, mouse PD-L2 Ig fusion protein (mouse, UniProt Q9WUL5 20-221)
T3 construct: mouse PD-L2 part of a bought Ig fusion protein; also called mPD-L2; murine PD-L2-Ig; source: bought: R&D Systems
T3 sequence (looked up): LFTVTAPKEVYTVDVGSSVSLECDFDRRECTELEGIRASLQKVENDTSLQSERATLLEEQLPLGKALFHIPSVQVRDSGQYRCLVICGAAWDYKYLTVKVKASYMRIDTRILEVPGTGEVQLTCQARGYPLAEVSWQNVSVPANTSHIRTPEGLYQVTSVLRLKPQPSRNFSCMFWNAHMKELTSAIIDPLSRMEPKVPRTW

[4] = target: T4, human PD-L1 Ig fusion protein (human, UniProt Q9NZQ7 19-238)
T4 construct: characterized by SEC prior to use; detected on cells with anti-human IgG Fcγ-specific F(ab')2; also called huPD-L1; B7-H1; source: bought: R&D Systems
T4 sequence (Q9NZQ7 19-238): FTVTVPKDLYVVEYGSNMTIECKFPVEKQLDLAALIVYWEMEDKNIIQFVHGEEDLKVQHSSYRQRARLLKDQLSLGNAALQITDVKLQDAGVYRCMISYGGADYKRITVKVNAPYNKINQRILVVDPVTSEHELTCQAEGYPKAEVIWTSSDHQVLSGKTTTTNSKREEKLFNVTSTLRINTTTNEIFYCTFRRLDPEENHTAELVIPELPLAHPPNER

T1 sequence (Q9EP73 19-239): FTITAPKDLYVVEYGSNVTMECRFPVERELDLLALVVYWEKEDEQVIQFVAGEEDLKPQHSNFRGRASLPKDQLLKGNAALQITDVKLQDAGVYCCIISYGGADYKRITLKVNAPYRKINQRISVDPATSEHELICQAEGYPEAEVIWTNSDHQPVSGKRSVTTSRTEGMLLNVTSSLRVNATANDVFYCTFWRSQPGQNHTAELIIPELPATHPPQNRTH

B1: mouse PD-1 A132L mutant (soluble, monomeric) (domain or fragment)
chain: SLTFYPAWLTVSEGANATFTCSLSNWSEDLMLNWNRLSPSNQTEKQAAFCNGLSQPVQDARFQIIQLPNRHDFHMNILDTRRNDSGIYLCGAISLHPKLKIEESPGAELVVTERILE
notes: the same molecule is used for the SPR analyte and for the crystallised complexes (PDB 3SBW, 3RNK, 3BP6); also called mA132L; mouse analog of A132L
Kd [1]: 2780 nM
Kd [2]: 1180 nM
Kd [3]: 470 nM
Kd [4]: 480 nM
